The target in one test is GFP-SNX4 (UniProt O95219). Put plainly: co-IP.
The target of a further test is T1, GFP-SNX4, O95219.
T1 chain: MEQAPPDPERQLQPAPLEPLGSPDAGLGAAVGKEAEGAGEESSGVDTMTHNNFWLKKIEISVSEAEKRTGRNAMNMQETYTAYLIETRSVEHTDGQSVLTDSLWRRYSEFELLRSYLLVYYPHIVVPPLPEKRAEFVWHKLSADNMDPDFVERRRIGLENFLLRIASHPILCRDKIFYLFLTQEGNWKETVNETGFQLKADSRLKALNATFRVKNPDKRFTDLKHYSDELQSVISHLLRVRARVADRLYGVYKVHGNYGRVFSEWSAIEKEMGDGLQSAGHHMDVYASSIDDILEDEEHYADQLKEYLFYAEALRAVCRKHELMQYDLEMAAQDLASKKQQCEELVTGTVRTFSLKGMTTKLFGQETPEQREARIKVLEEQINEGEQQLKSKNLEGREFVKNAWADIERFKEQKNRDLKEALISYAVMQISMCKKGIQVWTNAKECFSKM
Put plainly: co-IP. The settings on record: remark: other sources report otherwise.

In the case of “HA-SNX32 A226E (from UniProt Q86XE0 1-403) (natural protein)”, the ratio of HA to GFP band intensity in the test with GFP-SNX4 worked out at 0.65.

B1: HA-SNX32 FL, Q86XE0 1-403 (natural protein)
chain: METYAEVGKEGKPSCASVDLQGDSSLQVEISDAVSERDKVKFTVQTKSCLPHFAQTEFSVVRQHEEFIWLHDAYVENEEYAGLIIPPAPPRPDFEASREKLQKLGEGDSSVTREEFAKMKQELEAEYLAIFKKTVAMHEVFLQRLAAHPTLRRDHNFFVFLEYGQDLSVRGKNRKELLGGFLRNIVKSADEALITGMSGLKEVDDFFEHERTFLLEYHTRIRDACLRADRVMRAHKCLADDYIPISAALSSLGTQEVNQLRTSFLKLAELFERLRKLEGRVASDEDLKLSDMLRYYMRDSQAAKDLLYRRLRALADYENANKALDKARTRNREVRPAESHQQLCCQRFERLSDSAKQELMDFKSRRVSSFRKNLIELAELELKHAKASTLILRNTLVALKGEP
Regarding B1, the ratio of HA to GFP band intensity with GFP-SNX4, O95219 is 0.92.
